# Results from the supplement of paper PMC9112550, “Optimization of the antimicrobial peptide Bac7 by deep mutational scanning” (BMC Biology, 2022).
# Tested on: Escherichia coli TOP10
# Experiment: shrunken log2 fold change of peptide-encoding DNA abundance (4.5 h post-induction vs induction); higher = less antimicrobial activity (less host growth inhibition)
# Settings: time post-induction: 4.5 h; library: site-saturation at positions 5, 18, 19, 20
# 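Note: peptides expressed intracellularly from a pBAD plasmid library in pooled LB shake-flask culture, induced with 0.3% L-arabinose, DNA abundance read by NGS, three biological replicates, DESeq2 with apeglm shrinkage.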
row,Sequence,shrunken log2 fold change
1,RRIRFRPPRLPRPRPRPTLDPRP,0.0939
2,RRIRLRPPRLPRPRPRPWVDPRP,-0.0575
3,RRIRRRPPRLPRPRPRPKDLPRP,-0.0233
4,RRIRSRPPRLPRPRPRPKNFPRP,-0.053
5,RRIRCRPPRLPRPRPRPFCIPRP,-0.571
6,RRIRHRPPRLPRPRPRPFKYPRP,-0.115
7,RRIRMRPPRLPRPRPRPPQQPRP,0.945
8,RRIRQRPPRLPRPRPRPGWPPRP,0.514
9,RRIRTRPPRLPRPRPRPLPVPRP,-0.103
10,RRIRHRPPRLPRPRPRPERQPRP,-0.0882
11,RRIRFRPPRLPRPRPRPWGWPRP,0.346
12,RRIRPRPPRLPRPRPRPEIAPRP,0.189
13,RRIRERPPRLPRPRPRPPPFPRP,0.313
14,RRIRTRPPRLPRPRPRPHASPRP,-0.033
15,RRIRSRPPRLPRPRPRPCFSPRP,-0.378
16,RRIRFRPPRLPRPRPRPIPSPRP,-0.0572
17,RRIRFRPPRLPRPRPRPSRDPRP,1.18
18,RRIRTRPPRLPRPRPRPMEAPRP,-0.0389
19,RRIRFRPPRLPRPRPRPICRPRP,-0.0837
20,RRIRLRPPRLPRPRPRPFRLPRP,-0.0872
21,RRIRRRPPRLPRPRPRPMLWPRP,-0.0161
22,RRIRERPPRLPRPRPRPHHWPRP,-0.315
23,RRIRARPPRLPRPRPRPTKRPRP,0.247

row,Sequence,shrunken log2 fold change
1,RRIRRRPPRLPRPRPRPIEEPRP,0.0745
2,RRIRGRPPRLPRPRPRPFEWPRP,-0.127
3,RRIRERPPRLPRPRPRPNTSPRP,0.37
4,RRIRSRPPRLPRPRPRPPAPPRP,0.906
5,RRIRVRPPRLPRPRPRPAFCPRP,0.185
6,RRIRVRPPRLPRPRPRPCGMPRP,-0.00417
7,RRIRSRPPRLPRPRPRPDMRPRP,0.187
8,RRIRLRPPRLPRPRPRPRFFPRP,0.0823
9,RRIRQRPPRLPRPRPRPQTWPRP,0.126
10,RRIRQRPPRLPRPRPRPQNCPRP,0.0179
11,RRIRNRPPRLPRPRPRPWLCPRP,0.00252
12,RRIRDRPPRLPRPRPRPQLHPRP,0.267
13,RRIRARPPRLPRPRPRPIGTPRP,0.0903
14,RRIRWRPPRLPRPRPRPEQSPRP,0.678
15,RRIRCRPPRLPRPRPRPLFKPRP,-0.475
16,RRIRHRPPRLPRPRPRPQPPPRP,0.373
17,RRIRARPPRLPRPRPRPRWPPRP,0.666
18,RRIRFRPPRLPRPRPRPDYKPRP,-0.492
19,RRIRRRPPRLPRPRPRPYGDPRP,-0.251
20,RRIRHRPPRLPRPRPRPECRPRP,0.0764
21,RRIRLRPPRLPRPRPRPQVLPRP,-0.0429
22,RRIRERPPRLPRPRPRPITRPRP,-0.149
23,RRIRLRPPRLPRPRPRPTQKPRP,0.194

row,Sequence,shrunken log2 fold change
1,RRIRARPPRLPRPRPRPNCRPRP,0.0806
2,RRIRWRPPRLPRPRPRPIYNPRP,-0.896
3,RRIRNRPPRLPRPRPRPKDFPRP,-0.000911
4,RRIRSRPPRLPRPRPRPSTCPRP,0.0296
5,RRIRIRPPRLPRPRPRPVMEPRP,-0.194
6,RRIRIRPPRLPRPRPRPGRWPRP,0.473
7,RRIRDRPPRLPRPRPRPNCNPRP,1.33
8,RRIRMRPPRLPRPRPRPRCCPRP,0.373
9,RRIRGRPPRLPRPRPRPEITPRP,0.542
10,RRIRYRPPRLPRPRPRPVLIPRP,-0.00211
11,RRIRMRPPRLPRPRPRPQEEPRP,-0.0207
12,RRIRCRPPRLPRPRPRPCLFPRP,-0.333
13,RRIRSRPPRLPRPRPRPKFLPRP,-0.0307
14,RRIRGRPPRLPRPRPRPDNEPRP,1.84
15,RRIRYRPPRLPRPRPRPVPQPRP,-0.0271
16,RRIRYRPPRLPRPRPRPDQPPRP,0.0375
17,RRIRCRPPRLPRPRPRPVTTPRP,-0.0492
18,RRIRHRPPRLPRPRPRPCFKPRP,-1.25
19,RRIRCRPPRLPRPRPRPWPWPRP,0.0405
20,RRIRRRPPRLPRPRPRPIGVPRP,0.273
21,RRIRKRPPRLPRPRPRPICGPRP,0.0699
22,RRIRLRPPRLPRPRPRPWETPRP,0.0162
23,RRIRARPPRLPRPRPRPYQSPRP,-0.0285

row,Sequence,shrunken log2 fold change
1,RRIRLRPPRLPRPRPRPNVWPRP,0.346
2,RRIRMRPPRLPRPRPRPQYVPRP,-0.0961
3,RRIRIRPPRLPRPRPRPILDPRP,-0.797
4,RRIRCRPPRLPRPRPRPPVGPRP,0.414
5,RRIRKRPPRLPRPRPRPPILPRP,0.0292
6,RRIRCRPPRLPRPRPRPGYMPRP,-0.836
7,RRIRPRPPRLPRPRPRPFQVPRP,-0.0122
8,RRIRERPPRLPRPRPRPGCGPRP,0.307
9,RRIRQRPPRLPRPRPRPYENPRP,0.00377
10,RRIRCRPPRLPRPRPRPVWNPRP,0.0577
11,RRIRTRPPRLPRPRPRPEDSPRP,-0.0215
12,RRIRSRPPRLPRPRPRPPTDPRP,0.429
13,RRIRHRPPRLPRPRPRPEQAPRP,-0.0477
14,RRIRFRPPRLPRPRPRPKHTPRP,-0.0698
15,RRIRMRPPRLPRPRPRPYMSPRP,-0.00176
16,RRIRVRPPRLPRPRPRPAEDPRP,0.0101
17,RRIRLRPPRLPRPRPRPMITPRP,-0.07
18,RRIRARPPRLPRPRPRPECFPRP,0.938
19,RRIRWRPPRLPRPRPRPFNKPRP,-0.441
20,RRIRPRPPRLPRPRPRPREFPRP,0.485
21,RRIRERPPRLPRPRPRPDAQPRP,0.154
22,RRIRNRPPRLPRPRPRPCDCPRP,0.0143
